According to the supplement of paper PMC7877785:
± gives the uncertainty stated by the source.

Experiment: self-splicing fitness, log relative to wild type (ln ratio); higher = more splicing; Tetrahymena group I intron in knt gene, E. coli kanamycin selection, DiMSum; sequences stand for … in CUCUCU…GGAGGGAAAAGUUAUCAGGCAUGCACCUGGUAGCUAGUCUUUAAACCAAUAGAUUGCAUCGGUUUAAAAGGCAAGACCGUCAAAUUGCGGGAAAGGGGUCAACAGCCGUUCAGUACCAAGUCUCAGGGGAAACUUUGAGAUGGCCUUGCAAAGGGUAUGGUAAUAAGCUGACGGACAUGGUCCUAACCACGCAGCCAAGUCCUAAGUCAACAGAUCUUCUGUUGAUAUGGAUGCAGUUCACAGACUAAAUGUCGGUCGGGGAAGAUGUAUUCUUCUCAUAAGAUAUAGUCGGACCUCUCCUUAAUGGGAGCUAGCGGAUGAAGUGAUGCAACACUGGAGCCGCUGGGAACUAAUUUGUAUGCGAAAGUAUAUUGAUUAGUUUUGGAGUACUCGUGGUCG
In short: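 Pooled colonies went to amplicon sequencing on an Illumina HiSeq 2500 after six replicate transformations. The plates were LB agar with 100 μg/mL carbenicillin, 50 μM IPTG and 0.2% rhamnose, with or without 25 μg/mL kanamycin, incubated overnight at 37°C or 30°C. The E. coli BL21(DE3) library had all eight P1ex-region intron nucleotides randomised, the intron placed in the knt kanamycin-resistance gene on pET-22b(+). DiMSum fitness is the error-weighted combination of replicate fold changes, kanamycin against none, normalised to wild type.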

Row | Sequence | self-splicing fitness (ln) (30 °C) | self-splicing fitness (ln) (37 °C)
1 | UCUUAGCAAUAUUACGGACU | -2.76 ± 0.34 | -0.0771 ± 0.26
2 | CUCUAGCAAUAUUACGUGUG | -2.93 ± 0.11 | -2.89 ± 0.14
3 | GACUAGCAAUAUUACGAAUA | -2.54 ± 0.24 | -0.356 ± 0.21
4 | GCGAAGCAAUAUUACGAAAG | -4.38 ± 0.4 | -1.14 ± 0.18
5 | AUGUAGCAAUAUUACGUCCG | -2.71 ± 0.13 | -1.39 ± 0.12
6 | GUCUAGCAAUAUUACGCCGA | -1.65 ± 0.19 | -0.506 ± 0.15
7 | CCACAGCAAUAUUACGGGCA | -3.53 ± 0.15 | -2.92 ± 0.15
8 | GGGCAGCAAUAUUACGAGCG | -0.755 ± 0.1 | 0.344 ± 0.12
9 | CACUAGCAAUAUUACGUAGU | -3.45 ± 0.14 | -2.92 ± 0.18
10 | GAAAAGCAAUAUUACGGCGU | -0.208 ± 0.095 | 0.24 ± 0.11
11 | GGAAAGCAAUAUUACGGAAG | -4.32 ± 0.22 | -1.93 ± 0.15
12 | UAUCAGCAAUAUUACGCGAA | -0.515 ± 0.12 | -0.291 ± 0.15
13 | CUUGAGCAAUAUUACGGCUA | – | -1.11 ± 0.42
14 | GUGCAGCAAUAUUACGAAAG | -1.58 ± 0.18 | -2.38 ± 0.27
15 | AGAAAGCAAUAUUACGCAGG | -2.89 ± 0.15 | -1.4 ± 0.15
16 | GAGUAGCAAUAUUACGAUAU | -2.42 ± 0.1 | -1.51 ± 0.14
17 | GACGAGCAAUAUUACGGGCU | -3.61 ± 0.2 | -2.21 ± 0.19
18 | UACCAGCAAUAUUACGGUCG | -0.769 ± 0.064 | 0.485 ± 0.091
19 | GGAUAGCAAUAUUACGCUAA | -2.07 ± 0.16 | -1.03 ± 0.22
20 | AUGAAGCAAUAUUACGACAC | 0.0739 ± 0.12 | -0.0401 ± 0.14
21 | CCUUAGCAAUAUUACGUACC | -3.04 ± 0.45 | –
22 | CGCAAGCAAUAUUACGUCAA | -3.1 ± 0.12 | -2.93 ± 0.14
23 | CAACAGCAAUAUUACGUUCU | -1.32 ± 0.073 | -0.92 ± 0.094
24 | CAAAAGCAAUAUUACGUCGU | -3.83 ± 0.12 | -1.54 ± 0.1
25 | UGUAAGCAAUAUUACGUAUU | -2.86 ± 0.11 | -0.873 ± 0.083
26 | CUUCAGCAAUAUUACGUGAG | -0.619 ± 0.031 | -0.0413 ± 0.054

Row | Sequence | self-splicing fitness (ln) (30 °C) | self-splicing fitness (ln) (37 °C)
27 | GGAAAGCAAUAUUACGCACA | -0.416 ± 0.091 | 0.0226 ± 0.14
28 | UGAUAGCAAUAUUACGUCUG | -0.116 ± 0.085 | 0.318 ± 0.1
29 | CUGUAGCAAUAUUACGACUU | -2.12 ± 0.21 | -1.36 ± 0.33
30 | GGACAGCAAUAUUACGACUA | 0.148 ± 0.12 | -0.612 ± 0.12
31 | GAGCAGCAAUAUUACGCGUU | -3.08 ± 0.12 | -1.32 ± 0.12
32 | AGGGAGCAAUAUUACGAUGC | – | -2.65 ± 0.41
33 | UUGGAGCAAUAUUACGGGAG | -4.02 ± 0.39 | -2.62 ± 0.31
34 | AGCUAGCAAUAUUACGGCCC | -0.559 ± 0.2 | 0.0329 ± 0.35
35 | CGCUAGCAAUAUUACGGGAU | -3.77 ± 0.36 | -2.4 ± 0.26
36 | GGCAAGCAAUAUUACGAAGG | -3.36 ± 0.17 | -2.05 ± 0.19
37 | CGCCAGCAAUAUUACGGACC | -1.3 ± 0.15 | -0.361 ± 0.18
38 | CCGAAGCAAUAUUACGCGGU | -3.64 ± 0.22 | -2.11 ± 0.2
39 | UGGAAGCAAUAUUACGCGUU | -4.13 ± 0.18 | -3.03 ± 0.26
40 | UACCAGCAAUAUUACGUUUC | -4 ± 0.28 | -2.56 ± 0.22
41 | ACCCAGCAAUAUUACGGGGU | -3.58 ± 0.14 | -3 ± 0.14
42 | CGAUAGCAAUAUUACGGGAA | -2.74 ± 0.32 | -2.33 ± 0.25
43 | GACCAGCAAUAUUACGGUAC | -2.05 ± 0.09 | -1.75 ± 0.092
44 | UGCAAGCAAUAUUACGAAUG | -1.35 ± 0.085 | -0.724 ± 0.12
45 | AACGAGCAAUAUUACGAAGC | -3.92 ± 0.42 | -1.91 ± 0.37
46 | CAUAAGCAAUAUUACGCGAG | -1.99 ± 0.097 | -1.39 ± 0.085
47 | GGGCAGCAAUAUUACGGAUU | -0.98 ± 0.12 | -0.0797 ± 0.1
48 | ACUUAGCAAUAUUACGACAU | -0.756 ± 0.012 | -0.251 ± 0.032
49 | CAACAGCAAUAUUACGGAUC | -3.08 ± 0.12 | -1.89 ± 0.12
50 | GGUAAGCAAUAUUACGUCAU | -0.725 ± 0.14 | 0.713 ± 0.2
51 | CCCUAGCAAUAUUACGCCCG | -3.81 ± 0.37 | -2.12 ± 0.37
52 | AAAGAGCAAUAUUACGAUAA | -3.45 ± 0.18 | -2.2 ± 0.22

Row | Sequence | self-splicing fitness (ln) (30 °C) | self-splicing fitness (ln) (37 °C)
53 | UACUAGCAAUAUUACGGUUC | -2.29 ± 0.29 | -1.63 ± 0.39
54 | UAGGAGCAAUAUUACGGAGU | -1.77 ± 0.36 | –
55 | CCCCAGCAAUAUUACGUGAU | -3.64 ± 0.11 | -2.96 ± 0.18
56 | ACUCAGCAAUAUUACGAGUA | -2.23 ± 0.12 | -1.1 ± 0.1
57 | GGGUAGCAAUAUUACGCCUG | -1.42 ± 0.12 | -0.219 ± 0.14
58 | AAAGAGCAAUAUUACGCGUC | -2.18 ± 0.2 | -2.6 ± 0.21
59 | GUACAGCAAUAUUACGAGCU | -2.18 ± 0.15 | -1.51 ± 0.15
60 | UGAAAGCAAUAUUACGGACC | -0.608 ± 0.13 | -0.126 ± 0.16
61 | GCCUAGCAAUAUUACGCAUG | -4.28 ± 0.36 | -1.67 ± 0.15
62 | CUGGAGCAAUAUUACGGAGA | -3.11 ± 0.42 | –
63 | CGUCAGCAAUAUUACGGUAC | -3.64 ± 0.31 | -1.89 ± 0.27
64 | UGCAAGCAAUAUUACGCAAA | -2.5 ± 0.17 | -2 ± 0.15
65 | UAAUAGCAAUAUUACGUCUU | -3.1 ± 0.17 | -1.1 ± 0.11
66 | UGGUAGCAAUAUUACGACGG | -1.49 ± 0.11 | -0.695 ± 0.13
67 | CUAUAGCAAUAUUACGGUCU | -4.51 ± 0.36 | -2.14 ± 0.29
68 | AUCCAGCAAUAUUACGUCGA | -0.897 ± 0.097 | -0.557 ± 0.12
69 | CGAAAGCAAUAUUACGGUCG | -2.88 ± 0.15 | -2.19 ± 0.16
70 | CUUGAGCAAUAUUACGAUCU | – | -1.04 ± 0.31
71 | CAGAAGCAAUAUUACGCUAG | -2.82 ± 0.18 | -1.73 ± 0.2
72 | UAACAGCAAUAUUACGAGAA | -2.22 ± 0.22 | -2.07 ± 0.23
73 | AUGGAGCAAUAUUACGAACG | -2.21 ± 0.25 | -2.35 ± 0.5
74 | CAGGAGCAAUAUUACGAUUG | -3.77 ± 0.28 | -2.46 ± 0.23
75 | UGUUAGCAAUAUUACGGGUA | -0.939 ± 0.15 | -1.4 ± 0.16
76 | ACGCAGCAAUAUUACGUUGG | -2.94 ± 0.082 | -1.91 ± 0.096
77 | AGUAAGCAAUAUUACGGUUA | -0.833 ± 0.11 | -0.477 ± 0.092
